Patent US12702694B2, “Methods for identification, assessment, prevention, and treatment of metabolic disorders using SLIT2” (Dana-Farber Cancer Institute, Inc., priority 2015, dated 2026)

Tests used:
[1] = test system: inguinal white fat tissue and brown fat tissue; experiment: Tissue respiration (Clark electrode) of minced adipose tissue; assay type: in vivo, Mus musculus; details: day 7 after adenovirus injection
Protocol: (§1) Tissue respiration was performed using a Clark electrode (Stathkelvin Instruments). Freshly isolated tissues were dissected from mice treated with LacZ or Slit2-C adenovirus for 7 days. Equally sized pieces of tissue were minced and placed in respiration buffer containing PBS supplemented with 2% (w/v) bovine serum albumin, 1% (w/v) glucose, and 1 mM Na pyruvate. Oxygen (O2) consumption was normalized to tissue weight. Cellular oxygen consumption rates were determined using an XF24 Extracellular Flux Analyzer (Seahorse Biosciences). Primary brown fat adipocytes were seeded at 15,000 cells/well, differentiation was induced the following day as previously described, and the cells were analyzed on day 5. On the day of analysis, the cells were washed once with Seahorse respiration buffer (8.3 g/l DMEM, 1.8 g/l NaCl, 1 mM pyruvate, 20 mM glucose, pen/strep), placed in 0.5 ml Seahorse respiration buffer, and incubated in a C02-free incubator for 1 hr. Port injection solutions were prepared as follows: oligomycin (1 μM final concentration), norepinephrine (1 μM final concentration), FCCP (0.2 μM final concentration), and rotenone (3 μM final concentration). Each cycle consisted of the following: mix 4 min, wait 0 min, and measure 2 min. Data are presented as S.E.M.

[2] = test system: primary inguinal fat cells; experiment: Cellular oxygen consumption measured by Seahorse; assay type: cell-based, Mus musculus; details: recombinant Slit2-C 1 ug/mL (Calico/AbbVie), acute or 2 h treatment; FIG. 13
Protocol: as §1, with “Port injection solutions were prepared as follows: oligomycin (1 μM final concentration), norepinephrine (1 μM final concentration), FCCP (0.2 μM final concentration), and rotenone (3 μM final concentration). Each cycle consisted of the following: mix 4 min, wait 0 min, and measure 2 min. Data are presented as S.E.M.” left out
As described above in Examples 5-7, in vitro and in vivo data on respiration using Slit2-C adenovirus overexpression models and loss-of-function analyses in Seahorse assays are described. In vitro confirmation of the results was determined using an alternative source of recombinant Slit2-C (FIG. 13). […] Cellular oxygen consumption rates were determined as described in Example 1 Statistical analysis was performed as described in Example 1C above.

[3] = test system: diet-induced obese (DIO) mice; experiment: Adipose gene and UCP1 protein expression after adenovirus injection in diet-induced obese (DIO) mice; assay type: in vivo, Mus musculus
Protocol: All animal experiments were approved by the Institutional Animal Care and Use Committee of the Beth Israel Deaconess Medical Center. Mice (Mus musculus) were obtained from Jackson Laboratories, maintained in 12 hour light-lark cycles (6 a.m.-6 p.m.) at 22° C., and fed a standard irradiated rodent chow diet or a high-fat diet (60% fat) for 12-20 weeks. AAV-8 viruses (Penn Vector Core) and adenoviruses (Vector Biolabs or constructed in-house) were injected at a titer of 10^11 or 10^10 per mouse, respectively. All experiments were done with male mice. The aP2-PRDM16 transgenic mice have been previously described in Seale et al. (2011) J. Clin. Invest. 121:96-105. PRDM16-floxed mice were crossed with adiponectin-Cre and were maintained on a pure C57BL/6 background (Cohen et al. (2014) Cell 156:304-316). The Slit2-floxed mice have been described previously in Rama et al. (2015) Nat. Med. 21:483-491. Lean C57BL/6 mice were obtained from Jackson Laboratories and were […].
RNA was extracted from cultured cells or frozen tissue samples using TRIzol®, purified with QIAGEN RNeasy® minicolumns. Normalized RNA was reversed transcribed using a high-capacity cDNA reverse transcription lot (Applied Biosystems) and cDNA was analyzed by qRT-CPR. Relative mRNA levels were calculated using the comparative CT method and normalized to cyclophilin […]. All primers used are listed with their sequences in Table 3 as follows: […]
(§2) For Western blotting, homogenized tissues, whole cell lysates, or concentrated serum free conditioned medium were lysed in RIPA buffer containing protease inhibitor cocktail (Thermo Scientific) and phosphatase inhibitor cocktail (Thermo Scientific), separated by SDS-PAGE and transferred to Immobilon-P® membranes (Millipore). For Western blotting of plasma samples, 1 μl of plasma was prepared containing 2× sample buffer (Invitrogen) with reducing agent, boiled and analyzed using Western blot against V5, FLAG, or the indicated antibody. V5-antibody was from Life Technologies and anti-Flag M2-HRP (A8592) from Sigma Aldrich. Anti-Slit2 antibody used was from Abcam (Abcam ab134166). Phospho-PKA Substrate, phospho-PKC Substrate, phospho-ERK1/2, total ERK, phospho-AKT, total AKT, phospho-AMPK, total AMPK, phospho-ATGL, ATGL, phospho-EGFR and EGFR were from Cell Signaling. Protein array was from R&D Systems (Proteome Profiler Mouse Phospho-RTK Array Kit, ARY014). Silverstain (SilverQuest™ Silver Staining Kit, LC6070) was purchased from Thermo Fisher.

[4] = test system: receptor tyrosine kinases and intracellular kinases; experiment: Phosphokinase array in primary inguinal cells; assay type: cell-based, Mus musculus; details: Slit2-C vs lacZ adenovirus, primary inguinal adipocytes
Protocol: as §2

B1: Slit2-C: ~50 kDa C-terminal cleavage fragment of Slit2 beginning at TSP (SEQ ID NO: 22); adenovirally expressed or purified FLAG-tagged protein (protein, listed as Homo sapiens)
chain: TSPCDNFDCQNGAQCIIRINEPICQCLPGYLGEKCEKLVSVNFVNKESYLQIPSAKVRPQTNITLQIATDEDSGILLYKGDKDHIAVELYRGRVRASYDTGSHPASAIYSVETINDGNFHIVELLTLDSSLSLSVDGGSPKVITNLSKQSTLNFDSPLYVGGMPGKNNVASLRQAPGQNGTSFHGCIRNLYINSELQDFRKMPMQTGILPGCEPCHKKVCAHGMCQPSSQSGFTCECEEGWMGPLCDQRTNDPCLGNKCVHGTCLPINAFSYSCKCLEGHGGVLCDEEEDLFNPCQMIKCKHGKCRLSGVGQPYCECNSGFTGDSCDREISCRGERIRDYYQKQQGYAACQTTKKVSRLECRGGCAGGQCCGPLRSKRRKYSFECTDGSSFVDEVEKVVKCGCARCAS
modifications: FLAG tag
notes: adenovirally expressed or purified FLAG-tagged protein
O2 consumption of inguinal tissue ([1]; did not reach significance): elevated | O2 consumption of BAT ([1]; reached significance): elevated | cellular oxygen consumption vs results of Examples 5-7 [2]: confirm the results | Fas in inguinal and brown fat ([3]; 16-week DIO mice, 7 days post-injection, FIGS. 7A-7B): reduction | Hsl and Atgl expression ([3]; 16-week DIO mice, FIGS. 7A-7B): unchanged | Resistin in brown fat ([3]; FIG. 7C): unchanged | brown fat levels of Leptin ([3]; FIG. 7C): marked reduction | induction of Ucp1 protein expression in BAT ([3]; Western blot quantification relative tubulin, DIO mice 7 days post-injection, FIG. 7D): 1.3 fold | phospho-EGFR and phospho-ERK1/2 (only two of 39 kinases tested) [4]: robust phosphorylation changes
